In PMC12317982 one finds ratio to parent data, which are given here for 6 variants.

The labels stand for the following.
B1: EMC1-FLAG [human] / SLC3A2, Strep-tagged [not stated] (parent)
chain 1: YEDQVGKFDWRQQYVGKVKFASLEFSPGSKKLVVATEKNVIAALNSRTGEILWRHVDKGTAEGAVDAMLLHGQDVITVSNGGRIMRSWETNIGGLNWEITLDSGSFQALGLVGLQESVRYIAVLKKTTLALHHLSSGHLKWVEHLPESDSIHYQMVYSYGSGVVWALGVVPFSHVNIVKFNVEDGEIVQQVRVSTPWLQHLSGACGVVDEAVLVCPDPSSRSLQTLALETEWELRQIPLQSLDLEFGSGFQPRVLPTQPNPVDASRAQFFLHLSPSHYALLQYHYGTLSLLKNFPQTALVSFATTGEKTVAAVMACRNEVQKSSSSEDGSMGSFSEKSSSKDSLACFNQTYTINLYLVETGRRLLDTTITFSLEQSGTRPERLYIQVFLKKDDSVGYRALVQTEDHLLLFLQQLAGKVVLWSREESLAEVVCLEMVDLPLTGAQAELEGEFGKKADGLLGMFLKRLSSQLILLQAWTSHLWKMFYDARKPRSQIKNEINIDTLARDEFNLQKMMVMVTASGKLFGIESSSGTILWKQYLPNVKPDSSFKLMVQRTTAHFPHPPQCTLLVKDKESGMSSLYVFNPIFGKWSQVAPPVLKRPILQSLLLPVMDQDYAKVLLLIDDEYKVTAFPATRNVLRQLHELAPSIFFYLVDAEQGRLCGYRLRKDLTTELSWELTIPPEVQRIVKVKGKRSSEHVHSQGRVMGDRSVLYKSLNPNLLAVVTESTDAHHERTFIGIFLIDGVTGRIIHSSVQKKAKGPVHIVHSENWVVYQYWNTKARRNEFTVLELYEGTEQYNATAFSSLDRPQLPQVLQQSYIFPSSISAMEATITERGITSRHLLIGLPSGAILSLPKALLDPRRPEIPTEQSREENLIPYSPDVQIHAERFINYNQTVSRMRGIYTAPSGLESTCLVVAYGLDIYQTRVYPSKQFDVLKDDYDYVLISSVLFGLVFATMITKRLAQVKLLNRAWR
chain 2: MSQDTEVDMKEVELNELEPEKQPMNAASGAAMSLAGAEKNGLVKIKVAEDEAEAAAAAKFTGLSKEELLKVAGSPGWVRTRWALLLLFWLGWLGMLAGAVVIIVRAPRCRELPAQKWWHTGALYRIGDLQAFQGHGAGNLAGLKGRLDYLSSLKVKGLVLGPIHKNQKDDVAQTDLLQIDPNFGSKEDFDSLLQSAKKKSIRVILDLTPNYRGENSWFSTQVDTVATKVKDALEFWLQAGVDGFQVRDIENLKDASSFLAEWQNITKGFSEDRLLIAGTNSSDLQQILSLLESNKDLLLTSSYLSDSGSTGEHTKSLVTQYLNATGNRWCSWSLSQARLLTSFLPAQLLRLYQLMLFTLPGTPVFSYGDEIGLDAAALPGQPMEAPVMLWDESSFPDIPGAVSANMTVKGQSEDPGSLLSLFRRLSDQRSKERSLLHGDFHAFSAGPGLFSYIRHWDQNERFLVVLNFGDVGLSAGLQASDLPASASLPAKADLLLSTQPGREEGSPLELERLKLEPHEGLLLRFPYAA
B2: EMC1-FLAG [human] / TMEM38B, Strep-tagged [not stated] (parent)
chain 1: B1 chain 1
chain 2: MDSPWDELALAFSRTSMFPFFDIAHYLVSVMAVKRQPGAAALAWKNPISSWFTAMLHCFGGGILSCLLLAEPPLKFLANHTNILLASSIWYITFFCPHDLVSQGYSYLPVQLLASGMKEVTRTWKIVGGVTHANSYYKNGWIVMIAIGWARGAGGTIITNFERLVKGDWKPEGDEWLKMSYPAKVTLLGSVIFTFQHTQHLAISKHNLMFLYTIFIVATKITMMTTQTSTMTFAPFEDTLSWMLFGWQQPFSSCEKKSEAKSPSNGVGSLASKPVDVASDNVKKKHTKKNE
B3: EMC1-FLAG [human] / BCAP31, Strep-tagged [not stated] (parent)
chain 1: B1 chain 1
chain 2: MSLQWTAVATFLYAEVFVVLLLCIPFISPKRWQKIFKSRLVELLVSYGNTFFVVLIVILVLLVIDAVREIRKYDDVTEKVNLQNNPGAMEHFHMKLFRAQRNLYIAGFSLLLSFLLRRLVTLISQQATLLASNEAFKKQAESASEAAKKYMEENDQLKKGAAVDGGKLDVGNAEVKLEEENRSLKADLQKLKDELASTKQKLEKAENQVLAMRKQSEGLTKEYDRLLEEHAKLQAAVDGPMDKKEE

The first experiment covers variants of B1. The experiment is described as follows: co-IP and immunoblot (quantified). The conditions noted are these: with SLC3A2, Strep-tagged;; read off a plot.
chain 1 V941K S944K S945K: the ratio to parent turned out to be 0.51.

For chain 1 F948A F952A, the ratio to parent stood at 0.87.

The variants in the next experiment derive from B2. The experiment is described as follows: co-IP and immunoblot (quantified). The conditions noted are these: with TMEM38B, read off a plot.
Turning to chain 1 V941K S944K S945K, the ratio to parent stood at 0.78.

As for chain 1 F948A F952A, the ratio to parent worked out at 0.4.

Variants of B3 are the subject of another experiment. The experiment is described as follows: co-IP and immunoblot (quantified). Particulars: with BCAP31, Strep-tagged;; read off a plot.
With chain 1 F948A F952A, the ratio to parent was 0.75.

In the case of chain 1 V941K S944K S945K, the ratio to parent stood at 0.57.
